{"source": "paper PMC10663207", "key": {"[1]": {"molecular_target": "NMDA receptor subunit GluN2A (rat (endogenous in primary cortical neurons)) (UniProt Q00959)", "sequence (Q00959 23-1464)": "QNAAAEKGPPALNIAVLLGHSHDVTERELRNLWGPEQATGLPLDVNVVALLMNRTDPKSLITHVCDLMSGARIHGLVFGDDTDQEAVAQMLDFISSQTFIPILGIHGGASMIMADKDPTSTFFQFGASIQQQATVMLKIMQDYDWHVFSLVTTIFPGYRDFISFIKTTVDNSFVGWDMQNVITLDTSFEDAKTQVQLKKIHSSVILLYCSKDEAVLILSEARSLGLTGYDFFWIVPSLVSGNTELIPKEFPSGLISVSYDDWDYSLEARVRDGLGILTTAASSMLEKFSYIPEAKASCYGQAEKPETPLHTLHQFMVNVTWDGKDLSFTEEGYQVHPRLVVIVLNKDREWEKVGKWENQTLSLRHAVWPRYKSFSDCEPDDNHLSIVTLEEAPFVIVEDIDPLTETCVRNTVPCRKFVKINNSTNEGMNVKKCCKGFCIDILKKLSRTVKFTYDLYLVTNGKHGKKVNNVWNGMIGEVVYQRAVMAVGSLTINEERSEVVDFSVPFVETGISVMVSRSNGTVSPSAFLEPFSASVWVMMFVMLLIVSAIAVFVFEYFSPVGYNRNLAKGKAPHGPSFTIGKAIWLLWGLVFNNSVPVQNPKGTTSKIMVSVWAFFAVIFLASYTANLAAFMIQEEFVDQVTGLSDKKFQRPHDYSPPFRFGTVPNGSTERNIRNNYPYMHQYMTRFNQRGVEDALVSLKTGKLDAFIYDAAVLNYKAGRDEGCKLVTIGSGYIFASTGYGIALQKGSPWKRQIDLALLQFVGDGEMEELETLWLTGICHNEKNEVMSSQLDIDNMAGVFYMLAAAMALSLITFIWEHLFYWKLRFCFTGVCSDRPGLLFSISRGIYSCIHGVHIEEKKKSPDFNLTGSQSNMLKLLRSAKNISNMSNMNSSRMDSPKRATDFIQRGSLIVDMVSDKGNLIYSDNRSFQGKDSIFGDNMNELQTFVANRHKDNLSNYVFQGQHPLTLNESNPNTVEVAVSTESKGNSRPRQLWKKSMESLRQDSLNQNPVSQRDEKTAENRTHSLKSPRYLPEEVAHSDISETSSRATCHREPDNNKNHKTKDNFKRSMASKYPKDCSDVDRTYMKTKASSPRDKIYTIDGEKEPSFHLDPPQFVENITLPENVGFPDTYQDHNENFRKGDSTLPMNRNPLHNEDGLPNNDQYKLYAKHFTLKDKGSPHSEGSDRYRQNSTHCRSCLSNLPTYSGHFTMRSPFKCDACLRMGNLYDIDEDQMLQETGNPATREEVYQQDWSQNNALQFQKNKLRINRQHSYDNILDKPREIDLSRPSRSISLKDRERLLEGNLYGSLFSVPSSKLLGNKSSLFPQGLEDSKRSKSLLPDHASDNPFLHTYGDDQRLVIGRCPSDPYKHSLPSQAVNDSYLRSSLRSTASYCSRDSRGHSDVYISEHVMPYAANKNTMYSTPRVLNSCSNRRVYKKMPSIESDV", "assay": "co-IP; precleared lysates (700 µg) of rat primary cortical neurons incubated overnight with protein G-agarose carrying anti-GluN2A or anti-GluN2B; blots for STIM1 and STIM2; control neurons and neurons treated with 50 µM NMDA and 100 µM glycine for 15 min; bands normalised to the precipitated subunit"}, "[2]": {"molecular_target": "NMDA receptor subunit GluN2B (rat (endogenous in primary cortical neurons)) (UniProt Q00960)", "sequence (Q00960 27-1482)": "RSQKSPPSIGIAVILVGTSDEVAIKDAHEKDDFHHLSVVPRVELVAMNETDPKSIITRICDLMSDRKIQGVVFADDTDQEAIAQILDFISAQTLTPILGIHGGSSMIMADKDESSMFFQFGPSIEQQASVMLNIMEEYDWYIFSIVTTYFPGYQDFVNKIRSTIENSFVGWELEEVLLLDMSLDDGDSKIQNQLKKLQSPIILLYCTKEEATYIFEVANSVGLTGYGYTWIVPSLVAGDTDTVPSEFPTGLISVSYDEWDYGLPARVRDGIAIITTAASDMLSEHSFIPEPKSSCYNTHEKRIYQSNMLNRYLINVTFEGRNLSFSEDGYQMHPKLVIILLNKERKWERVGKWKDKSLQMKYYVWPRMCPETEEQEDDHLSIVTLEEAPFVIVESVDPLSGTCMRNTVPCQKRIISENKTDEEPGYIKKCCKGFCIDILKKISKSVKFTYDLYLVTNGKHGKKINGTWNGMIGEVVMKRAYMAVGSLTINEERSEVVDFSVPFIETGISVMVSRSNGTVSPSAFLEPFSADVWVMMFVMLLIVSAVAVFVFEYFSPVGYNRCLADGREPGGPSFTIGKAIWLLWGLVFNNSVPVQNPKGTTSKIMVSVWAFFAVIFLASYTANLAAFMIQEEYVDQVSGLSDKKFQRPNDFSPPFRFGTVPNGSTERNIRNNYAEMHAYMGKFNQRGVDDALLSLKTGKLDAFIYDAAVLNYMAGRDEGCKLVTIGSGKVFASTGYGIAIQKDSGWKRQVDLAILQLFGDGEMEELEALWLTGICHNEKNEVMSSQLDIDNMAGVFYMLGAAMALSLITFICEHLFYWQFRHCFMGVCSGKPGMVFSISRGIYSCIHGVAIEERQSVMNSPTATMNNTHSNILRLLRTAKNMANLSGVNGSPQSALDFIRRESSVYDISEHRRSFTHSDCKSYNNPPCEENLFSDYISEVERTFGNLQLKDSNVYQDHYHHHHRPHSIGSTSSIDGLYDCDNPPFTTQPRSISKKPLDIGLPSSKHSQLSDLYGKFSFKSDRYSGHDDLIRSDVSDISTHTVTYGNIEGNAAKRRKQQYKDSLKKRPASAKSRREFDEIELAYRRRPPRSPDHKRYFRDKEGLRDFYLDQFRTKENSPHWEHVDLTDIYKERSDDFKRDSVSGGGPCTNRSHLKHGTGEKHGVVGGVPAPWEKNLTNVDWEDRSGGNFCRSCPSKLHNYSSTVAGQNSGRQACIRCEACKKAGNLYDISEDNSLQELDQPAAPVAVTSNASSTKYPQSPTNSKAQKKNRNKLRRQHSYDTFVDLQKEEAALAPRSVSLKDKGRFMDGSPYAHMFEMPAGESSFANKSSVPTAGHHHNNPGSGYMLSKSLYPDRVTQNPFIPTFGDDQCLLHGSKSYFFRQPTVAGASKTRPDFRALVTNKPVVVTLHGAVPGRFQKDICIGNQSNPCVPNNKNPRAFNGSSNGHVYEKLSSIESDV", "assay": "co-IP; precleared lysates (700 µg) of rat primary cortical neurons incubated overnight with protein G-agarose carrying anti-GluN2A or anti-GluN2B; blots for STIM1 and STIM2; control neurons and neurons treated with 50 µM NMDA and 100 µM glycine for 15 min; bands normalised to the precipitated subunit"}}}
{"substance": "stromal interaction molecule 2 (STIM2) (natural protein)", "values": [{"measurement": "co-IP band after NMDA and glycine treatment, percent of control neurons", "setting": "[1]", "value": 340, "unit": "%"}, {"measurement": "co-IP band after NMDA and glycine treatment, percent of control neurons", "setting": "[2]", "value": 204, "unit": "%"}]}
